Experimental data reported in article PMC2116221.

Molecular target: taxol-stabilized microtubules (bovine brain tubulin) (bovine) (UniProt Q6B856)
Assay: co-sedimentation

UniProt Q6B856, sequence (Q6B856 whole entry, looked up): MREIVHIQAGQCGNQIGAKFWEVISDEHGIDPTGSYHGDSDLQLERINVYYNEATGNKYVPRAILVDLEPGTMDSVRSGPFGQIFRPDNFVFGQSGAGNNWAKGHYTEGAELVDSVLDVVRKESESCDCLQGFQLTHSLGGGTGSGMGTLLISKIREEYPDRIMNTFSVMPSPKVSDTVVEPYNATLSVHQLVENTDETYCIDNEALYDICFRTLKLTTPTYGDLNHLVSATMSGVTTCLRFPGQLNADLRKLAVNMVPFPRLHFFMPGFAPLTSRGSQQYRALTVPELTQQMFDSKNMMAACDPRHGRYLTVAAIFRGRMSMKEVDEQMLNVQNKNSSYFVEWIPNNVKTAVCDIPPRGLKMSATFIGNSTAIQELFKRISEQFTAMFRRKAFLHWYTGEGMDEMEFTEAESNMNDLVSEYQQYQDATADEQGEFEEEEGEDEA

## CHO1 antigen, polypeptide of ~115 kD (HeLa cytoplasm) (from UniProt Q02241 1-960) (natural protein)
  percent extracted from microtubules by 0.5 M NaCl: 60%

## CHO1 antigen, polypeptide of ~100 kD (HeLa cytoplasm) (from UniProt Q02241-2 1-856) (natural protein)
  percent extracted from microtubules by 0.5 M NaCl: 60%
